In publication PMC9482650, “Quantitative fragmentomics allow affinity mapping of interactomes” (Nature Communications, 2022) one finds pKd data, which are given here for 4 molecules.

Targets include DLG2_3, Q15700; DLG5_1, Q8TDM6; GOPC, Q9HD26; GRASP, Q7Z6J2; GRID2IP_2, A4D2P6; GRIP2_4, Q9C0E4; Inadl_1, Q8NI35; Inadl_2, Q8NI35; LAP2, Q96RT1; MAGI1_2, Q96QZ7; SCRIB_2, Q14160; TJP1_2, Q07157.
Assay in all cases: holdup assay
What all share (set-up): key: below the threshold = too weak to quantify, mostly under pKd 3.1 to 4
Holding throughout (conditions): plain residues with an end cap or a label only (N-terminal biotin on a linker: ado-ado)

In a further assay the target is T1, APBA1_1, Q02410.
T1 sequence (Q02410 651-752, limits assumed, looked up): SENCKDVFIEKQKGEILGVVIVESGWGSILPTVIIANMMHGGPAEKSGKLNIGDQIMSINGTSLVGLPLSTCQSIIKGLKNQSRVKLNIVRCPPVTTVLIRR

The target in the next assay is T2, APBA2_2, Q99767.
T2 sequence (Q99767 654-744, limits assumed, looked up): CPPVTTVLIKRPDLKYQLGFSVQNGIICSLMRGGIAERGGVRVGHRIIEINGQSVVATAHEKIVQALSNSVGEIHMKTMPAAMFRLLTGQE

For the next assay, the target named is T3, ARHGEF11, O15085.
T3 sequence (O15085 42-136, limits assumed, looked up): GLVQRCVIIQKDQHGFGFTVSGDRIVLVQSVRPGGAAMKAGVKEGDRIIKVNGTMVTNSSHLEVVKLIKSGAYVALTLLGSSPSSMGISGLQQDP

The target in the next assay is T4, DLG3_2, Q92796.
T4 sequence (Q92796 221-321, limits assumed, looked up): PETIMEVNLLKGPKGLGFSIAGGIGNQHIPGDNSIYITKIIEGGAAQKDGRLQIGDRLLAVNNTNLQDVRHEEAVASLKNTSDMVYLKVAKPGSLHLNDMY

Another assay addresses T5, DLG3_3, Q92796.
T5 sequence (Q92796 374-475, limits assumed, looked up): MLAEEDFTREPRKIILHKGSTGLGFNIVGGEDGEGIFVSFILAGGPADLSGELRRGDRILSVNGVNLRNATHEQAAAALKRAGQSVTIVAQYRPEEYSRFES

A further assay deals with T6, GRIP1_2, Q9Y3R0.
T6 sequence (Q9Y3R0 145-248, limits assumed, looked up): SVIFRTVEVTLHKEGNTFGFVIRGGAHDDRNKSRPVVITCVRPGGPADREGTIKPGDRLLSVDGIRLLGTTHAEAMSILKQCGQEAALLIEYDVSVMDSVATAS

The target in the next assay is T7, GRIP1_3, Q9Y3R0.
T7 sequence (Q9Y3R0 247-346, limits assumed, looked up): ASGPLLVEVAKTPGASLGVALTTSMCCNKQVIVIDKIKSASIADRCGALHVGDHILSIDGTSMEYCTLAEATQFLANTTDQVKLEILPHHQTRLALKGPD

In the next assay the target is T8, HTRA3, P83110.
T8 sequence (P83110 354-453, limits assumed, looked up): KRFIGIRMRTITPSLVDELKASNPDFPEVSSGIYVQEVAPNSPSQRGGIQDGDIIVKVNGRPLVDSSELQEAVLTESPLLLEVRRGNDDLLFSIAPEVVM

A further assay addresses T9, MPDZ_12, O75970.
T9 sequence (O75970 1857-1958, limits assumed, looked up): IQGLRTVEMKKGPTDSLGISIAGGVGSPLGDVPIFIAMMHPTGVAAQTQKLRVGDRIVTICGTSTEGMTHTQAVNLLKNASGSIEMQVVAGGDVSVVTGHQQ

For the next assay, the target named is T10, MPP6, Q9NZW5.
T10 sequence (Q9NZW5 125-219, limits assumed, looked up): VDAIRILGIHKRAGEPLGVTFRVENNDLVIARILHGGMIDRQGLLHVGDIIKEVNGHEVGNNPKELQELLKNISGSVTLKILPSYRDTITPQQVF

The target in another assay is T11, PARD3B_1, Q8TEW8.
T11 sequence (Q8TEW8 196-299, limits assumed, looked up): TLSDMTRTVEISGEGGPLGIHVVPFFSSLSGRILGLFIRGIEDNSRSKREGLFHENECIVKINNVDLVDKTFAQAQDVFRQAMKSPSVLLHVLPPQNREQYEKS

The next assay addresses T12, SHANK1, Q9Y566.
T12 sequence (Q9Y566 658-767, limits assumed, looked up): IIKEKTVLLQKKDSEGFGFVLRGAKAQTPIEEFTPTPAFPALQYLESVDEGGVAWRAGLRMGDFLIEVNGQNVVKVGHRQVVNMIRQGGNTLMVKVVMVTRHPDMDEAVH

Usually pKd stands for the Kd on a negative log10 scale, so that one unit is a factor of ten.

Chain of GRIP2_4, Q9C0E4 (Q9C0E4 446-548): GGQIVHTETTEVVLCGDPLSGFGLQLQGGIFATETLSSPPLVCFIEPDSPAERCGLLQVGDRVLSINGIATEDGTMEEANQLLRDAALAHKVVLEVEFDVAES
Chain of Inadl_2, Q8NI35 (Q8NI35 238-335): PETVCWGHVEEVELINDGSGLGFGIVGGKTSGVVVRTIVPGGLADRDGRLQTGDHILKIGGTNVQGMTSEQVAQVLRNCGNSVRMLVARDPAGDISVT
Chain of SCRIB_2, Q14160 (Q14160 857-960): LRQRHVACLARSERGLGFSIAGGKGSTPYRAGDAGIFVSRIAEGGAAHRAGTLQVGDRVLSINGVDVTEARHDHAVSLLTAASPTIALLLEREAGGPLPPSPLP
Chain of TJP1_2, Q07157 (Q07157 181-274): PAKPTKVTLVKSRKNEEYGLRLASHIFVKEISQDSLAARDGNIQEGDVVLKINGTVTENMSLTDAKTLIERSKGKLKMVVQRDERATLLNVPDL
Chain of DLG5_1, Q8TDM6 (Q8TDM6 617-713): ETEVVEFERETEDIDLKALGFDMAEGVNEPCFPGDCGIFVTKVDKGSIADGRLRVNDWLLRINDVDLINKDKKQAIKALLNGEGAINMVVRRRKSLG
Chain of Inadl_1, Q8NI35 (Q8NI35 113-229): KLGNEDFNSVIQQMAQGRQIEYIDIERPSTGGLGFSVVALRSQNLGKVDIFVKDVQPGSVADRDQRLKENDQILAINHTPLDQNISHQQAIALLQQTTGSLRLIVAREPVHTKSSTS
Chain of GRASP, Q7Z6J2 (Q7Z6J2 96-193): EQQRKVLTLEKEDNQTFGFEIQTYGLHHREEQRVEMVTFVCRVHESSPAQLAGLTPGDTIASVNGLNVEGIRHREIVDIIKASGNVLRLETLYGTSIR
Chain of GRID2IP_2, A4D2P6 (A4D2P6 272-370): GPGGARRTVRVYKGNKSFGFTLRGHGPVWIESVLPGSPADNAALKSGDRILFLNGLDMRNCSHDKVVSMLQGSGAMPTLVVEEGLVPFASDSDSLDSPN
Chain of LAP2, Q96RT1 (Q96RT1 other isoform, or with tags, fused parts or gaps): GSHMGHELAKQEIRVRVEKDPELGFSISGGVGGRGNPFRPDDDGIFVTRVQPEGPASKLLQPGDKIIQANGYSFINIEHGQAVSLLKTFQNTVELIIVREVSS
Chain of MAGI1_2, Q96QZ7 (Q96QZ7 456-580): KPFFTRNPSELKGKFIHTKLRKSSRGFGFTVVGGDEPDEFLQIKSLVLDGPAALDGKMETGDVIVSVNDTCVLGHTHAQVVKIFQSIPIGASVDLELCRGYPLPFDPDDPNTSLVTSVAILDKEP

QNRIITKTDV [SMCHD1, A6NHR9]: the pKd result was “below the threshold” with APBA1_1, Q02410; “below the threshold” with APBA2_2, Q99767; 4.13 with ARHGEF11, O15085; “below the threshold” with DLG2_3, Q15700; 4.08 with DLG3_2, Q92796; “below the threshold” with DLG3_3, Q92796. In addition, the pKd entry with DLG5_1, Q8TDM6 is “below the threshold”; in the assay with GOPC, Q9HD26, 3.87; with GRASP, Q7Z6J2 it was 3.92; with GRID2IP_2, A4D2P6 it was 3.95; with GRIP1_2, Q9Y3R0, “below the threshold”; with GRIP1_3, Q9Y3R0, “below the threshold”. Moreover, the pKd entry is “below the threshold” with GRIP2_4, Q9C0E4; “below the threshold” in the assay with HTRA3, P83110; “below the threshold” in the assay with Inadl_1, Q8NI35; “below the threshold” with Inadl_2, Q8NI35; “below the threshold” with LAP2, Q96RT1; 3.99 with MAGI1_2, Q96QZ7. For the same molecule, the pKd entry with MPDZ_12, O75970 was “below the threshold”; in the assay with MPP6, Q9NZW5 it was “below the threshold”; with PARD3B_1, Q8TEW8 it was “below the threshold”; in the assay with SCRIB_2, Q14160, “below the threshold”; with SHANK1, Q9Y566 it was “below the threshold”; in the assay with TJP1_2, Q07157, “below the threshold”.
Take YPKQMPLSQV [FZD8, Q9H461]: the pKd entry was “below the threshold” with APBA1_1, Q02410; “below the threshold” with APBA2_2, Q99767; 3.89 with ARHGEF11, O15085; “below the threshold” with DLG2_3, Q15700; “below the threshold” in the assay with DLG3_2, Q92796; “below the threshold” with DLG3_3, Q92796. Besides, the pKd entry was “below the threshold” in the assay with DLG5_1, Q8TDM6; 4.52 with GOPC, Q9HD26; “below the threshold” with GRASP, Q7Z6J2; 4.28 with GRID2IP_2, A4D2P6; “below the threshold” with GRIP1_2, Q9Y3R0; “below the threshold” in the assay with GRIP1_3, Q9Y3R0. The pKd result with GRIP2_4, Q9C0E4 is “below the threshold”; with HTRA3, P83110, “below the threshold”; with Inadl_1, Q8NI35, “below the threshold”; with Inadl_2, Q8NI35, “below the threshold”; with LAP2, Q96RT1, “below the threshold”; with MAGI1_2, Q96QZ7, 3.55. The negative logarithm of the Kd (pKd) result in the assay with MPDZ_12, O75970 is given as “below the threshold”; with MPP6, Q9NZW5 it was “below the threshold”; in the assay with PARD3B_1, Q8TEW8, “below the threshold”; in the assay with SCRIB_2, Q14160 it was “below the threshold”; in the assay with SHANK1, Q9Y566, “below the threshold”; with TJP1_2, Q07157 it was “below the threshold”.
Regarding GDGLDDEIAV [NOS1AP, O75052], the pKd entry in the assay with APBA1_1, Q02410 was “below the threshold”; in the assay with APBA2_2, Q99767 it was “below the threshold”; with ARHGEF11, O15085, 4.37; with DLG2_3, Q15700, “below the threshold”; in the assay with DLG3_2, Q92796 it was 4.01; in the assay with DLG3_3, Q92796, “below the threshold”. The pKd result is listed as “below the threshold” in the assay with DLG5_1, Q8TDM6; “below the threshold” in the assay with GOPC, Q9HD26; “below the threshold” in the assay with GRASP, Q7Z6J2; “below the threshold” with GRID2IP_2, A4D2P6; “below the threshold” with GRIP1_2, Q9Y3R0; “below the threshold” with GRIP1_3, Q9Y3R0. For the same molecule, the pKd result is “below the threshold” with GRIP2_4, Q9C0E4; “below the threshold” with HTRA3, P83110; “below the threshold” in the assay with Inadl_1, Q8NI35; 3.99 with Inadl_2, Q8NI35; 3.67 with LAP2, Q96RT1; “below the threshold” with MAGI1_2, Q96QZ7. In addition, the negative-log Kd (pKd) entry with MPDZ_12, O75970 was “below the threshold”; with MPP6, Q9NZW5, “below the threshold”; in the assay with PARD3B_1, Q8TEW8 it was “below the threshold”; with SCRIB_2, Q14160 it was “below the threshold”; with SHANK1, Q9Y566, “below the threshold”; with TJP1_2, Q07157, “below the threshold”.
In the case of AEDEEIQTKM [UNC93A, Q86WB7], the pKd entry is “below the threshold” with APBA1_1, Q02410; “below the threshold” in the assay with APBA2_2, Q99767; “below the threshold” with ARHGEF11, O15085; “below the threshold” with DLG2_3, Q15700; “below the threshold” with DLG3_2, Q92796; “below the threshold” with DLG3_3, Q92796. In addition, the pKd result is “below the threshold” with DLG5_1, Q8TDM6; “below the threshold” in the assay with GOPC, Q9HD26; “below the threshold” in the assay with GRASP, Q7Z6J2; 3.77 with GRID2IP_2, A4D2P6; “below the threshold” with GRIP1_2, Q9Y3R0; “below the threshold” with GRIP1_3, Q9Y3R0. The pKd entry is on record as “below the threshold” with GRIP2_4, Q9C0E4; “below the threshold” in the assay with HTRA3, P83110; “below the threshold” with Inadl_1, Q8NI35; “below the threshold” with Inadl_2, Q8NI35; “below the threshold” with LAP2, Q96RT1; “below the threshold” with MAGI1_2, Q96QZ7. The pKd entry was “below the threshold” with MPDZ_12, O75970; “below the threshold” with MPP6, Q9NZW5; “below the threshold” in the assay with PARD3B_1, Q8TEW8; “below the threshold” in the assay with SCRIB_2, Q14160; 5.21 in the assay with SHANK1, Q9Y566; “below the threshold” with TJP1_2, Q07157.
